Results on five molecules are retold here after paper PMC11898274, “Interleukin-34 orchestrates bone formation through its binding to bone morphogenic proteins” (Theranostics, 2025).

What is called koff is the first-order rate constant of dissociation.

In experiment [1] the target is T1, Recombinant human interleukin-34 (IL34) (human, UniProt Q6ZMJ4 21-242).
T1 construct: Interleukin-34, human, recombinant; source: bought: R&D Systems
T1 sequence (looked up): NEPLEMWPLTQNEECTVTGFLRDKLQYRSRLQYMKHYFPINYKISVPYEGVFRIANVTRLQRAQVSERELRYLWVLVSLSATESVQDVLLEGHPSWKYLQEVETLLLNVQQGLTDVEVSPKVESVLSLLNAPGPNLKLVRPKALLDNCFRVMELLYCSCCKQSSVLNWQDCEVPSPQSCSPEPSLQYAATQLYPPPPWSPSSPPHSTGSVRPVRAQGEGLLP
Put plainly: SPR; BMP2, BMP4 or BMP7 immobilised (1500-2300 RU) on CM5-S chip by amine coupling at pH 4.5; IL34 injected in one cycle titration (12.5-200 nM, 60 s, 100 µL/min), 600 s dissociation; T200, 25 °C, PBS pH 7.4 with 0.05% P20; bivalent fitting model. The settings on record: both partners purified. On the technique in general: In SPR one partner is held on a chip, and binding of the other changes the refractive index at the surface.

For experiment [2], the target named is T1, Recombinant human interleukin-34 (IL34). In words: SPR; receptors captured on immobilized anti-human Fc; IL34 injected (18.75, 37.5, 75, 150, 300 nM); T200, 25 °C, PBS pH 7.4 with 0.05% P20; steady-state fitting model. To be noted: both partners purified.
The target of experiment [3] is T2, Recombinant human bone morphogenetic protein 2 (BMP2) (human, UniProt P12643 283-396).
T2 chain: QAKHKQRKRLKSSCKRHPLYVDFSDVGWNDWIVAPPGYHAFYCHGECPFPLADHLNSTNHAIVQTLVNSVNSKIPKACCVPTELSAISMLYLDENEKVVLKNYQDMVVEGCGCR
In words: SPR.

Experiment [4] addresses T3, Recombinant human bone morphogenetic protein 4 (BMP4) (human, UniProt P12644 293-408).
T3 chain: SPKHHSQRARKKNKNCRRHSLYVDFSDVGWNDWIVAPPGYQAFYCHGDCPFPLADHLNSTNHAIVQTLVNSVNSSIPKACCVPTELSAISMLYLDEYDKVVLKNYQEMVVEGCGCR
In words: SPR.

Experiment [5] deals with T4, Recombinant human bone morphogenetic protein 7 (BMP7) (human, UniProt P18075 293-431).
T4 chain: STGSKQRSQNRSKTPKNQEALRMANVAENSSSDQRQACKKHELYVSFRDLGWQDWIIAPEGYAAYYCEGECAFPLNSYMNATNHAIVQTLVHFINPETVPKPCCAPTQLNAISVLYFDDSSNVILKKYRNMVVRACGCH
Put plainly: SPR.

B1: Recombinant human bone morphogenetic protein 4 (BMP4) (ligand, UniProt P12644 293-408, looked up)
chain: T3 chain
notes: Bone morphogenetic protein 4, human, recombinant; source: bought: R&D Systems
On to B1, for which, in experiment [1], the Kd came out at 426 nM.

B2: Recombinant human bone morphogenetic protein 7 (BMP7) (ligand, UniProt P18075 293-431, looked up)
chain: T4 chain
notes: Bone morphogenetic protein 7, human, recombinant; source: bought: R&D Systems
With B2, the Kd in experiment [1] worked out at 922 nM.

B3: Human Activin RIIB receptor (ActRIIB) (Fc fusion, UniProt Q13705 19-137, looked up)
chain: SGRGEAETRECIYYNANWELERTNQSGLERCEGEQDKRLHCYASWRNSSGTIELVKKGCWLDDFNCYDRQECVATEENPQVYFCCCEGNFCNERFTHLPEAGGPEVTYEPPPTAPTLLT
notes: Activin receptor type-2B, human recombinant; source: bought: R&D Systems
With B3, the binding result in experiment [2] is “binds”.

B4: Recombinant human interleukin-34 (IL34) (ligand)
chain: T1 sequence (looked up)
On to B4, for which the koff turned out to be 0.0229 s⁻¹ in experiment [3], 0.0467 s⁻¹ in experiment [4] and 0.0561 s⁻¹ in experiment [5].

B5: Recombinant human bone morphogenetic protein 2 (BMP2) (ligand, UniProt P12643 283-396, looked up)
chain: T2 chain
notes: Bone morphogenetic protein 2, human, recombinant; source: bought: R&D Systems
Take B5: in experiment [1], the Kd was 363 nM.
